The target in this experiment is T1, Drosha (endogenous, N2A cells) (mouse (endogenous in N2A), UniProt Q5HZJ0 1-1373).
T1 construct: Drosha, endogenous protein of N2A neuroblastoma cells (ATCC CCL-131); source: endogenous, N2A lysate
T1 sequence (looked up): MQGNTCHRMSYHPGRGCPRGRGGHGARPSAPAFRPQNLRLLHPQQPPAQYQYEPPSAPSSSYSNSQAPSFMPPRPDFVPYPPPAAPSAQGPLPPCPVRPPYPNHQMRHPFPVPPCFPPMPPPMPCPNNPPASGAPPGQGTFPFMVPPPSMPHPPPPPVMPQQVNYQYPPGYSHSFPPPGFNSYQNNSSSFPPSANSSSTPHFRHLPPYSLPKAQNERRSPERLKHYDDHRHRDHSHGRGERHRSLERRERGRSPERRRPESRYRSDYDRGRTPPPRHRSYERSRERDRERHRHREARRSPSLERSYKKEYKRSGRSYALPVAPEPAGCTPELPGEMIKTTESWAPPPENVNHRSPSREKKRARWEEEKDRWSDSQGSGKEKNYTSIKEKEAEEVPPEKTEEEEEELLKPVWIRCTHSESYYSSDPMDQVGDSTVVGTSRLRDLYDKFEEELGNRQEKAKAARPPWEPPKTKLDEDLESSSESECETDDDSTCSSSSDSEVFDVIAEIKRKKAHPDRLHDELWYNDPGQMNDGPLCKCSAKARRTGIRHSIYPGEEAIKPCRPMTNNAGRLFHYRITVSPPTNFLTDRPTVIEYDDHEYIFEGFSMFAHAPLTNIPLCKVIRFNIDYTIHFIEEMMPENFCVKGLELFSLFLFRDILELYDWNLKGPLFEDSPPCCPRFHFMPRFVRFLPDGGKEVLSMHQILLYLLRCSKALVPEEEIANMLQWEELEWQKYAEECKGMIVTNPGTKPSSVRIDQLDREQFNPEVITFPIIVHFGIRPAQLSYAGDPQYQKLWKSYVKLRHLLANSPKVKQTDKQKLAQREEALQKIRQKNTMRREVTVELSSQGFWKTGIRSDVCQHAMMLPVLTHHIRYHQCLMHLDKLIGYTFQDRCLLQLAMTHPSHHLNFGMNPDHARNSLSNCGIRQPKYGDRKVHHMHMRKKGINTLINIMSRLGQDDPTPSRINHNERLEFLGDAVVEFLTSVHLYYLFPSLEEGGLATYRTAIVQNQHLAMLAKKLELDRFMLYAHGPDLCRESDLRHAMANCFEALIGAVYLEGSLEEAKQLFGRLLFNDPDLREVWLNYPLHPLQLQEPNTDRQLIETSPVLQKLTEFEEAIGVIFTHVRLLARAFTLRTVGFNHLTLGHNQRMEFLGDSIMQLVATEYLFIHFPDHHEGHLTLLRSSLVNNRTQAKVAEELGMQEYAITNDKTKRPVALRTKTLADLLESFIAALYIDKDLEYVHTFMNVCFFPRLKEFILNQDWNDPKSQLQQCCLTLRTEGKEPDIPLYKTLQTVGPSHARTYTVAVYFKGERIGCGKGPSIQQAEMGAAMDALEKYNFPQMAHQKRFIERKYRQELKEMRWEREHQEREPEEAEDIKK
The experiment is described as follows: co-IP; N2A cells transfected with SAFB-HA or SAFB-ΔRE-HA, 48 hr; IP of endogenous Drosha, anti-HA immunoblot, densitometry relative to Drosha; IgG isotype control IP. The following applies: partners not purified. For orientation: A western blot detects proteins with antibodies after separation by electrophoresis.

B1: SAFB-ΔRE-HA (natural protein, UniProt Q15424 1-915, looked up)
chain: MAETLSGLGDSGAAGAAALSSASSETGTRRLSDLRVIDLRAELRKRNVDSSGNKSVLMERLKKAIEDEGGNPDEIEITSEGNKKTSKRSSKGRKPEEEGVEDNGLEENSGDGQEDVETSLENLQDIDIMDISVLDEAEIDNGSVADCVEDDDADNLQESLSDSRELVEGEMKELPEQLQEHAIEDKETINNLDTSSSDFTILQEIEEPSLEPENEKILDILGETCKSEPVKEESSELEQPFAQDTSSVGPDRKLAEEEDLFDSAHPEEGDLDLASESTAHAQSSKADSLLAVVKREPAEQPGDGERTDCEPVGLEPAVEQSSAASELAEASSEELAEAPTEAPSPEARDSKEDGRKFDFDACNEVPPAPKESSTSEGADQKMSSPEDDSDTKRLSKEEKGRSSCGRNFWVSGLSSTTRATDLKNLFSKYGKVVGAKVVTNARSPGARCYGFVTMSTAEEATKCINHLHKTELHGKMISVEKAKNEPVGKKTSDKRDSDGKKEKSSNSDRSTNLKRDDKCDRKDDAKKGDDGSGEKSKDQDDQKPGPSERSRAVRRPYDLDRRDDAYWPEAKRAALDERYHSDFNRQDRFHDFDHRDRGRYPDHSVDRREGSRSMMGEREGQHYPERHGGPERHGRDSRDGWGGYGSDKRMSEGRGLPPPPRRDWGDHGRREDDRSWQGTADGGMMDRDHKRWQGGERSMSGHSGPGHMMNRGGMSGRGSFAPGGASRGHPIPHGGMQGGFGGQSRGSRPSDARFTRRY
notes: SAFB lacking the RE-rich region (amino acids 552-708), made from CAG::Safb-HA-IRES-Cfp by Q5 site-directed mutagenesis; Parent is m26; Also expressed in DG NSCs for the reporter assay; also called CAG::Safb-ΔRE-HA-IRES-Cfp; source: N2A, transfected (TransFectin), in lysate
For B1, the “fold reduction in binding against SAFB WT” value amounted to 5.7 fold.
